The source of these data is patent US20240033354A1.

The target in the experiment is TcdB1 holotoxin (recombinant full-length TcdB1, VPI10463 strain, expressed in Bacillus megaterium) (Clostridium difficile, VPI10463 strain) (UniProt P18177). In words: cell-based or functional assay.

On to Fab fragment of bezlotoxumab, for which the cell rounding assay on HeLa cells, TcdB1 10 pM, 6 h: reduction of cell-rounding at 2 µM (% reduction of cell-rounding at 2 µM) is 40.
